Source: article PMC8176726

Key:
[1] = tested on: T1, His6-CssR (Corynebacterium glutamicum RES167), ORF:46f2a94e; experiment: EMSA; conditions: EMSA: 10 mM Tris-HCl pH 7.4, 5 mM MgCl2, 50 mM KCl, 5% glycerol, 0.1% NP40, 1 ug poly(dI:dC), 0.5 mM EDTA, 20 ng DNA in 20 ul, room temperature 30 min
T1 sequence: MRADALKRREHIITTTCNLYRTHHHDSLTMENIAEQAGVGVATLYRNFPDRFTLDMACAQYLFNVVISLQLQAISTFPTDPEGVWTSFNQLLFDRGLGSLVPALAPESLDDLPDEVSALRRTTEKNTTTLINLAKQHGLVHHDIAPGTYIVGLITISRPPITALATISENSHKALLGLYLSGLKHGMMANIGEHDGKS

[2] = tested on: His6-CssR (Corynebacterium glutamicum RES167); experiment: EMSA; conditions: apparent KD; EMSA: 10 mM Tris-HCl pH 7.4, 5 mM MgCl2, 50 mM KCl, 5% glycerol, 0.1% NP40, 1 ug poly(dI:dC), 0.5 mM EDTA, 20 ng DNA in 20 ul, room temperature 30 min
[3] = molecular target: His6-CssR (C. glutamicum stress-sensing regulator, NCgl1578) (Corynebacterium glutamicum RES167); experiment: SEC; Superdex 75 10/300 GL, 50 mM potassium phosphate pH 7.4, 0.15 M NaCl; calibrated with a low molecular weight gel filtration kit (Kav versus log molecular weight); native mass 52 kDa
[4] = tested on: T1, His6-CssR (Corynebacterium glutamicum RES167), ORF:46f2a94e; experiment: DNase I footprinting; conditions: EMSA: 10 mM Tris-HCl pH 7.4, 5 mM MgCl2, 50 mM KCl, 5% glycerol, 0.1% NP40, 1 ug poly(dI:dC), 0.5 mM EDTA, 20 ng DNA in 20 ul, room temperature 30 min

Substance | binding [1] | further results
GGTATTGGGCGCATGCCATGTCCAGTGTGAAGCGATCGGGGAAGTTTCGGTATAAAGTTGCAACACCCACTCCTGCCTGTTCTGCAATGTTTTCCATGGTGAGCGAATCGTGATGGTGTGTGCGGTAGAG (double strand) [131-bp cssR coding region control] | no binding | –
131-bp PcssR | – | Kd [2]: 17 nM
AACACCGCGAATTATAGACTGAACTGGTACTTGGGAAGCTTTTTATAGTCATATGCGTTGAGATACGTGGACGACAAAGCACCAGTTAGTTGCCTTCCCAGTCCAGCCCACATCCGATTTCTAAATTAGGAGCACATC (double strand) [mtr promoter] | no binding | –
GATCACCGCATGTGAAACAAGCGGATACGCAATGAGCATCCCCCACGCCCACTGCACATTAAACACCCAATTCAACACCGCAAAACCCACCAAAAACAGCAGCGTCGCGATCACACAAGCAGCGTCAGATCTTTGCGGCATAGCGCCATC (double strand) [mrx1 promoter] | no binding | –
His6-CssR (C. glutamicum stress-sensing regulator, NCgl1578) (natural protein) | – | stoichiometry N [3]: 2
CGTAATTATTTCCGCGACAAGCTATTTGCAAGCTATGTGCAGGCTCATTGCACAAGTTCAGCGCGGAGACACGTCCTAAAAAATACTTATGAAATTATGTTCGACACCGAAATGTCACCTGAAACTTCAACCAAGCCGCCAGTGCACCTATTCCACAAACCAAAAAATCCGCCAACACGAATGCGGCGGATTTTTAAGATGTACAGG (double strand) [mshC promoter] | no binding | –
GTTGTTGTCCTCTAGTTGACAGCGGGGGTGGTGGTGGTCCTAAAATAGCCTACGATAACTGATAGTGTTTCCTCCACTTACGGAAGAAGATACATGAATACCCCTCTTTTGAGAAGCTCTGGGCTCTCCAT (double strand) [131-bp PcssR] | binds | Kd [1]: 17 nM
CGTTTTAGTGCGTCTGCTCTCATGTTGTTGTCCTCTAGTTGACAGCGGGGGTGGTGGTGGTCCTAAAATAGCCTACGATAACTGATAGTGTTTCCTCCACTTACGGAAGAAGATACATGAATACCCCTCTTTTGAGAAGCTCTGGGCTCTCCATCCGCGACACACCCTTCGCCGATGTTGAGATAGCTCCAGACAGCGGACTCAC (double strand) [PcssR footprint fragment] | – | binding [4]: binds
GAAGTTTTTCAAAGTGTCTGACGTTGAAAACGGTGAGTTCACAACTAGGGTGAATGGTGCACGTGATGCTGCACTTTTACGTTTACTACTTTGAGGGAAAC (double strand) [trx promoter] | no binding | –
